The values below are quoted from earlier work in publication PMC7101603.

In the series the target is Activin-A mature (Homo sapiens) (UniProt P08476).

For the substance “Activin βA pro-peptide pro-peptide (from UniProt P08476)”, the Kd was 100 nM.
